Measured values published in patent US20240294890, “SYSTEMS, METHODS, AND COMPOSITIONS FOR RNA-GUIDED RNA-TARGETING CRISPR EFFECTORS” (MASSACHUSETTS INSTITUTE OF TECHNOLOGY, published 2024).

Target: T1, DisCas7-11 (Desulfonema ishimotonii)
T1 chain: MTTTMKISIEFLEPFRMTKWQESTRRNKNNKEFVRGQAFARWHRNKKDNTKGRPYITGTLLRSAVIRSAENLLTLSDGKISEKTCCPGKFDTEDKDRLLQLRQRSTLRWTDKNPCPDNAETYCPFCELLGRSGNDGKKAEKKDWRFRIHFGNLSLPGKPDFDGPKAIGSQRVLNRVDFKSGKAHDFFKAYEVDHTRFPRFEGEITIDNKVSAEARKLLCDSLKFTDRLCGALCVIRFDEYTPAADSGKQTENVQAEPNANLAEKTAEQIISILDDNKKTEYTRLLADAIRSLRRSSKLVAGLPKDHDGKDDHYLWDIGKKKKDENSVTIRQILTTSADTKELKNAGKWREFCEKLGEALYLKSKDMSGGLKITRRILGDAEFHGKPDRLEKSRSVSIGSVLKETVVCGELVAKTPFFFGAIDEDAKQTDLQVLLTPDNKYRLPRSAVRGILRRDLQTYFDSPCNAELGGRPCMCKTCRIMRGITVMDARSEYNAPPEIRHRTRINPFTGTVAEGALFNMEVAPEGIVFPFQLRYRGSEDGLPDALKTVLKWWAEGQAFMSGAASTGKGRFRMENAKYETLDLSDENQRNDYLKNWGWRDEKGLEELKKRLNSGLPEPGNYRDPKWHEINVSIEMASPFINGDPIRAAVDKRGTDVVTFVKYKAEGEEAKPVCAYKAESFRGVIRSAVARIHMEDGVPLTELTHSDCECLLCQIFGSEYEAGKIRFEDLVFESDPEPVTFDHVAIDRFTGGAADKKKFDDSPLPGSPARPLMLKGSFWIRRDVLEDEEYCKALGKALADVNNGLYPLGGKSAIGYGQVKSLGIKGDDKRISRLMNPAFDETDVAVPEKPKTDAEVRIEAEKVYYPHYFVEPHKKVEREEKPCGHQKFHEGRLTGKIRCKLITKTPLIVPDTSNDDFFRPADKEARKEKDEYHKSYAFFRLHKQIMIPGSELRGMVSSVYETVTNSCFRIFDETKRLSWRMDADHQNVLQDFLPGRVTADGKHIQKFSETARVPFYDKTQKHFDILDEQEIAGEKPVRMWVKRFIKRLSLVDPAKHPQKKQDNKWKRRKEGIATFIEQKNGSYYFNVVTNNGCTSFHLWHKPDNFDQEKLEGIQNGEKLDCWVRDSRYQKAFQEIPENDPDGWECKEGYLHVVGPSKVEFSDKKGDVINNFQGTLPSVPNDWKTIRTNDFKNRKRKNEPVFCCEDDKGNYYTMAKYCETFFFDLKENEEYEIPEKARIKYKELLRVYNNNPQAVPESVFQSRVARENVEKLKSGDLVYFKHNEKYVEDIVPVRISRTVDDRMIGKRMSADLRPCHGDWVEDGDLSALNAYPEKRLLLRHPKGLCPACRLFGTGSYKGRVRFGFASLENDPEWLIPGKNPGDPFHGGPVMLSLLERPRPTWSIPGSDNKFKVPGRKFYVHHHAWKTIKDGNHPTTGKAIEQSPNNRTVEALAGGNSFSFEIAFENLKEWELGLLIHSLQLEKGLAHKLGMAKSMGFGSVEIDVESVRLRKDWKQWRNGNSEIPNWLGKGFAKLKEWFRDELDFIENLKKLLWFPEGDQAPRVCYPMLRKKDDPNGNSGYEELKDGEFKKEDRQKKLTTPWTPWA
Assay: EMSA; target binding crRNA-dependent; non-targeting control
Details: tags: Twin-Strep-SUMO tag cleaved off during purification; label: Cy5.5 body label
Protocol: Electrophoretic mobility shift assays (EMSA) for crRNA-target interactions and quantification of EMSA intensities were performed (FIGS. 17A-F). The EMSA assays for targeting crRNA in the absence of DisCas7-11 show minimal binding of the cRNA and shift of the labeled target).

B1: DisCas7-11 non-targeting crRNA ; MS2 target 153 nt (ssRNA ; ssRNA)
RNA 1: GGUUGGAAAGCCGGUUUUCUUUGAUGUCACGGAACCGCCAAUAUAACAAUACAGGUAUUAUAGUUG
RNA 2: GGGGCAAACUCCGGCAUCUACUAAUAGACGCCGGCCAUUCAAACAUGAGGAUUACCCAUGUCGAAGACAACAAAGAAGUUCAACUCUUUAUGUAUUGAUCUUCCUCGCGAUCUUUCUCUCGAAAUUUACCAAUCAAUUGCUUCUGUCGCUACU
binding result: no binding
